In US6881834:

Experiments:
[1] = target: Sp1 (UniProt P08047); assay: cell_activity; conditions: luciferase induction in Drosophila cells
[2] = target: Sp3 (UniProt Q02447); assay: cell_activity; conditions: luciferase induction in Drosophila cells
Chain of Sp3 (Q02447 whole entry): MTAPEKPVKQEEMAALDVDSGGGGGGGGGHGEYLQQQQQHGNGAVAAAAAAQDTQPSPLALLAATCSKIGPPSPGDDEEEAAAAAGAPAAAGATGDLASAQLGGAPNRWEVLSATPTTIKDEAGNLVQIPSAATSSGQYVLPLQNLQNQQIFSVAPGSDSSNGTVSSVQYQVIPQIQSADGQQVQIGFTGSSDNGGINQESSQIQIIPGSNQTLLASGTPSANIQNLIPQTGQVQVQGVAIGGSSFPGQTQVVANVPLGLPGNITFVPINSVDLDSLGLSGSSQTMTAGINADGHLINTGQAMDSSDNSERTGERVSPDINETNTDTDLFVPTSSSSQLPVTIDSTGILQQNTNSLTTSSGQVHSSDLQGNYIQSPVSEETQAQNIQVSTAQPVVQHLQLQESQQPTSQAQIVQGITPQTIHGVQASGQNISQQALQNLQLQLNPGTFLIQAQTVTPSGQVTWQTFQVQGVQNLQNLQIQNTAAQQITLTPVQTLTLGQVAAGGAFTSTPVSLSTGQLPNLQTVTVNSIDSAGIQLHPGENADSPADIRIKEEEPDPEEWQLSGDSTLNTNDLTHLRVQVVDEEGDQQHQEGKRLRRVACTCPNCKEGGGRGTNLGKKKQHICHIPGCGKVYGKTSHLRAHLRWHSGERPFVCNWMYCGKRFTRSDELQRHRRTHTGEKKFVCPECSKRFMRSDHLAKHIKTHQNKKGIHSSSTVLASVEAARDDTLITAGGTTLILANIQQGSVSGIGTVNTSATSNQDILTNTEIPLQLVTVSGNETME

Chain of Sp1 (P08047 2-785): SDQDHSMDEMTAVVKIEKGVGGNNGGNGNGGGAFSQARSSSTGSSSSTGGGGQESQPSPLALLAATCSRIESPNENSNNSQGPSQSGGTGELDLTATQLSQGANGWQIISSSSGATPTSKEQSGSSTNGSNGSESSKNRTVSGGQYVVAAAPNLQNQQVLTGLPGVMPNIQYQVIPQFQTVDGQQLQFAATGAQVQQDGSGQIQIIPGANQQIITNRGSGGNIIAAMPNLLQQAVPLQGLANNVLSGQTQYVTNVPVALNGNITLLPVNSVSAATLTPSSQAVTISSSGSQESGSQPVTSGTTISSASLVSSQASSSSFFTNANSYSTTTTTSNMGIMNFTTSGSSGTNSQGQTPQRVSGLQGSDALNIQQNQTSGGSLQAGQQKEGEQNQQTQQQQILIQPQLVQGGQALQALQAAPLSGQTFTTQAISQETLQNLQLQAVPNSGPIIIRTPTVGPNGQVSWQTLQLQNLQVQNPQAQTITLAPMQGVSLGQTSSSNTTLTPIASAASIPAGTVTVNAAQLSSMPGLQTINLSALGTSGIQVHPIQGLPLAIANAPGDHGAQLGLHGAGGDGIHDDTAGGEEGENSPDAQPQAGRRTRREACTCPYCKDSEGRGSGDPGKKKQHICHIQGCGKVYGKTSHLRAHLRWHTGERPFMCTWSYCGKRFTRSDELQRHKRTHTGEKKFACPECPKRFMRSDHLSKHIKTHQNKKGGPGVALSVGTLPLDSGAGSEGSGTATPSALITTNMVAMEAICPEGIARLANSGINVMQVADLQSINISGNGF

For CD11c promoter -196/+30 (CD11c-luc), the activity [1] was 19.5 fold and the activity [2] was 18.9 fold.
